In the RNAGym collection of RNA variant scans (doi:10.1073/pnas.2313332121):

B1: TPR t1 (parent)
chain: GACCAAUCUGCCCUCAGAGCUCGAGAACAUCUUCGGAUGCAGAGGAGGCAGGCUUCGGUGGCGCGAUAGCGCCAACGUCCUCAACCUCCAAUGCAUCCCACCACAUGAUGAUGCCUGAAGAGCCUUGGUUUUUUG

Variants of: B1
Assay: polymerase ribozyme fitness, log enrichment relative to wild type (log ratio); higher = more active; in vitro selection for triplet polymerase activity
In short: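 The heterodimeric triplet polymerase ribozyme's subunits were each mutagenized into PCR-built libraries and transcribed. Every library was selected once, in triplicate, by annealing with a biotinylated primer, the partner subunit and triplets, incubating frozen at −7 °C, gel-excising extended constructs, capturing on streptavidin beads and running RT-PCR. Input and output libraries were Illumina-sequenced, with genotypes kept only at ≥10 input reads and ≥1 read per output. Fitness, from inverse-variance-weighted replicate averages, is the base-2 logarithm of genotype enrichment over wild-type enrichment.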

Point of comparison: U33G C70U G120U, “polymerase ribozyme fitness (log ratio)” value -6.7. Against it:
- A37C C104A — higher, -1.22
- C34A C53A C56A — higher, -2.66
- G36C G48A G60C G61C — higher, -3.64
- A37C A103C — higher, -4.98
- C34A G69C — higher, -4.71
- C34A G69U — higher, -0.154
- U33C C62U — higher, -5.05
- C34G U106A — higher, -4.72
- G35A G69U C101G — higher, -2.83
- A37C G71C — higher, -1.27
- C34A C82U C97G — higher, -3.48
- G35A A74C C101U — higher, -4.16
- G36A G77C — higher, -1.72
- A37C A43U C49G — higher, -3.33
- A37G C72G C73U A74U — higher, -6.02
- G36A G60C U78C C79U C85A A90G — higher, -3.89
- G35C A46C C97U — higher, -6.04
- G36C G57C G61A U106C G113U — higher, -3.7
- G35A C73U U78G A90G C115G A121C — higher, -5.51
- C34A G48C G77A — higher, -2.78
- G36A G61U — higher, 0.0512
- G36U U96A — higher, -2.69
- C34A C85A G113A — higher, -4.78
- G36U A118U — higher, -1.08
- C34G A83G — higher, -6.49
- G36U C115U — higher, -2.01
- G36A U92A — higher, -3.67
- A37G C73A C82A A83G — higher, -2.53
- G35U C56U — higher, -4.99
- G36U G117U — higher, -3.26
- G36A G71U U78A — higher, -1.53
- C34A C123A — higher, -2.18
- C34G A50U G61C A90G G110C — lower, -7.04
- G36U U130G — higher, -2.05
- G35U G69A — lower, -7.16
- G36U C72G — higher, -1.68
- G35A C72U C98A G117U — lower, -7.49
- C34U A83C — higher, -5.74
- G36A A121U G128A — higher, 0.119
- G36C G69A G71A U81G C88A G93C C99A C123U — higher, -6.5
- U33C C70G — higher, -6.4
- C34G G69U — higher, -2.21
- A37C G44A C53A G63C C124A — higher, -3.21
- G35A G61C — higher, -5.94
- G36A A43C C73G — higher, -4.51
- G35U C123A — higher, -3.61
- G35U C123U — higher, -2.85
- G36U G39U G44A — higher, -4.17
- G36A C97G U112G C115U — higher, -5.56
- G35U U67C U109A C115U — higher, -5.63
- A37G C49G C64G A111U U126G — higher, -6.45
- G36A U59A C89G — higher, -3.6
- U33G G39U A50U C70U A84U A91C C114A — lower, -7.12
- G35C U81A U109A C114A C123G — higher, -5.16
- G36U U112G — higher, -1.32
- C34G G69U C123A — higher, -2.45
- G35C G39U — higher, -5.8
- U33G C34G C72G G110A — within 0.2 log units, -6.68
- C34U C85A A111U — higher, -5.33
- C34G C53U — higher, -5.89
- G35U G71U — higher, -5.03
- U33C G52A G58C G69A C104U U109A A111G U112A — lower, -6.93
- U33C A90C — higher, -6.14
- C34U C53U C56U — higher, -5.01
- A37G C76G G113A — higher, -1.57
- G35U G113A — higher, -6.27
- C34A C101G U129A — higher, -4.66
- U33G C94A G113C G117A — higher, -6.01
- G35U G61A C98G G107C C115A G120A — lower, -7.51
- C34A U54A G69U A121G — higher, 1.52
- C34U G120A U130A — higher, -4.02
- C34U U125A — higher, -4.8
- C34A G44C G69U C88A A91C G110A — higher, -4.87
- U33G G69C C80G A91C U92A C101U C115G — lower, -7.68
- G35C G120U — higher, -3.99
- A37C C64U C115G — higher, -1.35
- C34G C99U U130A — higher, -4.6
- C34A G48U G61C C72G C94G A119G U133C — higher, -3.16
- G36A G48U G63U C79G — higher, -5.18
- G36C C56U — higher, -0.42
- A37C A83U — higher, -0.456
- G36C U59A G69C C88A C101A — higher, -2.89
- A37C G39U C56U — higher, -2.66
